The assay concerns the target Cluster of differentiation 99 (CD99) (Homo sapiens (Human)., UniProt P14209). As to the kind of experiment: cell-based or functional assay.

Chain of Cluster of differentiation 99 (CD99) (P14209 23-185): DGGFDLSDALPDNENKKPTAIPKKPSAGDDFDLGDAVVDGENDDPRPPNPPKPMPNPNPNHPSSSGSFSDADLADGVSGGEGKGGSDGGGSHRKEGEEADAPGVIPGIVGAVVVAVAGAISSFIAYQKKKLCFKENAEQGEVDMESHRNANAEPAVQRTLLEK

B1: CD99-A192 (α-CD99 scFv fused to the amino-terminus of the elastin-like polypeptide A192) (scFv, V domains shown)
VH: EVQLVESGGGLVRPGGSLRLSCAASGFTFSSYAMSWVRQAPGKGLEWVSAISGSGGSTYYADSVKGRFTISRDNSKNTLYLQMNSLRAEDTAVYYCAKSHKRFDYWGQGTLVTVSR
VL: SSELTQDPAVSVALGQTVRITCQGDSLRSYYASWYQQKPGQAPVLVIYGKNNRPSGIPDRFSGSSSGNTASLTITGAQAEDEADYYCNSSFPRTSSVVFGGGTKLTVL
Turning to B1, the “IC50 of cell viability (CCK-8) of MV4-11 cells, 72 hours” value worked out at 400 nM and the “phospho-SRC in MV4-11 cells at 24 hours (western blot), 25 μmol/L CD99-A192 vs. A192” value is 11 fold.

Values taken from publication PMC11305399, “FLT3/CD99 Bispecific Antibody–Based Nanoparticles for Acute Myeloid Leukemia” (Cancer Research Communications, 2024).
